Here are results for two molecules from patent US20210147504A1.

Assay [1] has as its target rat ANP receptor (NPR-A) (rat) (UniProt P18910). As to the kind of experiment: cell-based or functional assay.
Assay [2] addresses rat CNP receptor (NPR-B) (rat) (UniProt P16067). Kind of assay: cell-based or functional assay.

Sequence of rat ANP receptor (NPR-A) (rat) (P18910 29-1057): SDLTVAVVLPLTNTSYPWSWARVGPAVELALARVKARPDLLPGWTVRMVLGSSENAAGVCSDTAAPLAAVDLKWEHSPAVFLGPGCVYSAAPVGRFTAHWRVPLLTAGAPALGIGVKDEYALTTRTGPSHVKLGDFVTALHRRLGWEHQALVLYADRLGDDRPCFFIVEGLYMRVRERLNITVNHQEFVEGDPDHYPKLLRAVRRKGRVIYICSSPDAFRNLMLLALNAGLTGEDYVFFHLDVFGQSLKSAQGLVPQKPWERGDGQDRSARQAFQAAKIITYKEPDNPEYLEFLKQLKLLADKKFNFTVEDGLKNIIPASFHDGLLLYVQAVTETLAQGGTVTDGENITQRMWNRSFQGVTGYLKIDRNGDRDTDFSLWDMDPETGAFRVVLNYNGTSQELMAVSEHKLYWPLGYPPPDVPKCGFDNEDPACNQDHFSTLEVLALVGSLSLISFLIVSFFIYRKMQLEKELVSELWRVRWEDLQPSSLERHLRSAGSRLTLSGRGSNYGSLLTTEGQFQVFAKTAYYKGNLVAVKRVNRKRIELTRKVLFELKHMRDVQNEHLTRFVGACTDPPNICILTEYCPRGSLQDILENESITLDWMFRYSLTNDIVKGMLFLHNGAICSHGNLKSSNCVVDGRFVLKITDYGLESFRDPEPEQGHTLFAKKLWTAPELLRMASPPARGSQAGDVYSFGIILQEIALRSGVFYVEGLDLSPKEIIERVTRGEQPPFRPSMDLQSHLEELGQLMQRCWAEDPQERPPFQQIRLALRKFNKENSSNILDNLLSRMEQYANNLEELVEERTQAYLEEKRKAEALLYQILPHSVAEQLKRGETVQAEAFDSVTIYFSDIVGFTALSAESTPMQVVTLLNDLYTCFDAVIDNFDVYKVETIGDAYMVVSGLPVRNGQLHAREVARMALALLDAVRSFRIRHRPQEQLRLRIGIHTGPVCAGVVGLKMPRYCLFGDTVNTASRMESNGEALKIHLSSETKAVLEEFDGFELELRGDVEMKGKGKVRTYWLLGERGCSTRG
Sequence of rat CNP receptor (NPR-B) (rat) (P16067 17-1047): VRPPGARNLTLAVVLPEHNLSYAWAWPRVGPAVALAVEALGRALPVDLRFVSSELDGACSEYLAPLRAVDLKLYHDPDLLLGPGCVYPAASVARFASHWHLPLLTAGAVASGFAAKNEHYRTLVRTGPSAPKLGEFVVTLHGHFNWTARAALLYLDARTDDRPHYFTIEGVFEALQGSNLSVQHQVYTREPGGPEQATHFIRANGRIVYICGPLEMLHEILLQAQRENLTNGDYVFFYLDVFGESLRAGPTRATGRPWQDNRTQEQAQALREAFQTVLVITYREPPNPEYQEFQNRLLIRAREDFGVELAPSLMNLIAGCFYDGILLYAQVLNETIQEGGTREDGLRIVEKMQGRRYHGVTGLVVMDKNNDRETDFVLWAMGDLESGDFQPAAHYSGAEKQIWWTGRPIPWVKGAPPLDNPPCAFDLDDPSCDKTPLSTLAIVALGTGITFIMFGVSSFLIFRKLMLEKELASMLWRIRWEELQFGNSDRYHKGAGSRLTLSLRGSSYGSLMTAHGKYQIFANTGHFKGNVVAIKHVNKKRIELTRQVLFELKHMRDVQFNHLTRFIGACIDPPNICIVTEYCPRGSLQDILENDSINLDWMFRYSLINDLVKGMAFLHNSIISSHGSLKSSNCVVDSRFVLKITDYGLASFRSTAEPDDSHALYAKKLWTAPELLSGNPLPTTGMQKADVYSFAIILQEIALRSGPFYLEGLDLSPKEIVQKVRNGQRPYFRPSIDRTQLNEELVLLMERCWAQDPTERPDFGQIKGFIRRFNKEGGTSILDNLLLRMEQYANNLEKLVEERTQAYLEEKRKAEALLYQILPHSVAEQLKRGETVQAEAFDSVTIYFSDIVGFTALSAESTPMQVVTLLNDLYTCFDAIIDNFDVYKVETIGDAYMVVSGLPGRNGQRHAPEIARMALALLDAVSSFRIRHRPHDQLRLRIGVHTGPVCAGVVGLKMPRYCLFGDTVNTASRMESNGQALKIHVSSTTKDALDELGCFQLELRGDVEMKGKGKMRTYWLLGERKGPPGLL

SLRRSSCFGGRIDRIGAQSGLGCNSFRY (peptide, from a related filing) [ANP (Bachem, H-2100)] came in with an EC50, fluorescence signal of rat NPR-A cGMP reporter CHO cell line (GCaMP6/CNGA2) in assay [1] of 220 pM.
Regarding GLSKGCFGLKLDRIGSMSGLGC (peptide, from a related filing) [CNP (Bachem, H-1296)], the EC50, luminescence signal of rat NPR-B cGMP reporter cell line in assay [2] stood at 24 pM.
